{
  "source": "paper PMC10194888",
  "about": "(PLOS ONE, 2023)",
  "proteins": {"B1": {"name": "TP0094 (putative phosphotransacetylase, Pta) of Treponema pallidum, wild-type (enzyme, UniProt O83132 1-336, looked up)", "chain": "MTFVESMQRRAVLAQKRLVLPEACEQRTLEAARLIVFRNIAAKVFLVGCERDIKNTADRCGIDLTDMVVIDPSVSKHRDQFAERYFQKRKHKGISLAQAAEDMRDPLRFAAMMLDQGHADAMVAGAENTTARVLRAGLTIIGTLPSVKTASSCFVMDTNNPRLGGTRGLFIFSDCAVIPTPTAEQLADIACSAAESCRTFIGEEPTVALLSYSTKGSGGDSDENILRVREAVRILHERRVDFTFDGELQLDAALVPKITEKKAPHSPITGKVNTLVFPDLSSGNIGYKLVQRLSDADAYGPFLQGFAKPLSDLSRGCSVEDIVAACAVTLVQSNGR", "notes": "TP0094, putative phosphotransacetylase (Pta; EC 2.3.1.8) of Treponema pallidum; DNA fragment encoding all amino-acid residues of TP0094; also called TpPta; WT TP0094; source: E. coli BL21 AI (co-transformed with pGroESL), purified"}},
  "key": {"O83132": {"molecular_target": "O83132", "experiment": "AUC; sedimentation velocity, 50,000 rpm, 20 °C, Working Buffer (20 mM HEPES, 0.1 M NaCl, pH 7.5, 2 mM n-octyl-β-D-glucopyranoside); 10 μM, 31 μM and 100 μM; c(s) analysis; monomer to dimer"}, "[1]": {"molecular_target": "the molecule itself", "experiment": "AUC; sedimentation velocity, 50,000 rpm, 20 °C, Working Buffer (20 mM HEPES, 0.1 M NaCl, pH 7.5, 2 mM n-octyl-β-D-glucopyranoside); 10 μM, 31 μM and 100 μM; c(s) analysis; monomer to dimer"}},
  "data": [
    {"protein": "B1", "values": [
      {"measurement": "mass purity of the dimer", "setting": "O83132", "value": "we estimate the mass purity of the dimer to range from 95–97%"},
      {"measurement": "stoichiometry N", "setting": "[1]", "value": 2}
    ]}
  ]
}
